Measured values from article PMC2760644 (Journal of molecular biology, 2009).

Target: F-actin (chicken, UniProt P68139 1-377)
Experiment: co-sedimentation

Kd: > 20 mM
B1: supervillin headpiece, wild type (domain or fragment)
chain: LAKLCKTIYPLADLLARPLPEGVDPLKLEIYLTDEDFEFALDMTRDEYNALPAWKQVNLKKAKGLF
